Assay results as given in patent publication US20260001933A1 (PETMEDIX, published 2026).
Where a chain is given by its changes, count along the chain named. Like-named read-outs stand apart in the source and are kept apart here.

Key:
[1] = target: T1, Human nerve growth factor (NGF) (human, UniProt P01138 122-241); assay: SPR, kinetic fit (caption of panel 7d: hNGF; BedinvetmAb; 1:1 binding); the set-up for Bedinvetmab is not described in the text; column head 'Kinetics affinity KD (nM)'
T1 construct: Bought reagent; also called human NGF; hNGF

[2] = target: T1, Human nerve growth factor (NGF); assay: cell-based or functional assay
[3] = target: T2, Rat nerve growth factor (NGF) (rat, UniProt P25427 122-241); assay: SPR (Biacore 8K), PetML119 captured on Protein A chip, rat NGF as analyte, multi-cycle kinetics; column head 'Kinetics affinity KD (nM)'
T2 construct: Bought reagent; also called rat NGF

[4] = target: T3, Murine FcRn-B2M recombinant protein (Immunitrack) (murine, UniProt Q61559 22-297; P01887 21-119, limits assumed); assay: SPR (Biacore 8K), murine FcRn-B2M amine-coupled on CM5, running buffer pH 6, fusion protein as analyte; steady state affinity
T3 construct: Bought reagent; also called murine neonatal receptor
T3 sequence (looked up): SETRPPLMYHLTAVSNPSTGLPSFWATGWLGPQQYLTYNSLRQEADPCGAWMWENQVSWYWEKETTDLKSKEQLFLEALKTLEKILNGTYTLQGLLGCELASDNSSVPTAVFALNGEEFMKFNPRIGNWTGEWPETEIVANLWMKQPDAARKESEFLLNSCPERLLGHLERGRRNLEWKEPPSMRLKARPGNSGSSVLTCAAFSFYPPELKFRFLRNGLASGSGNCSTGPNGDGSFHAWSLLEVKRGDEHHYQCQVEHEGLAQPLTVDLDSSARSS
T3 sequence (b2m, looked up): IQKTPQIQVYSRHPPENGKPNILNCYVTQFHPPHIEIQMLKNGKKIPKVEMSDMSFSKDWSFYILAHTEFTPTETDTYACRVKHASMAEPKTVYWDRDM

[5] = target: T4, Protein A (Sensor Chip Protein A, Cytiva) (UniProt P38507 212-269); assay: SPR (Biacore 8K), Sensor Chip Protein A, fusion protein produced in CHOZN injected over the chip, 1:1 binding kinetic fit; column head 'Kinetics affinity KD (nM)'
T4 construct: Commercial chip ligand; It may be a recombinant variant of staphylococcal protein A

[6] = target: T4, Protein A (Sensor Chip Protein A, …); assay: SPR (Biacore 8K), Sensor Chip Protein A, fusion protein produced in CHO-s injected over the chip, 1:1 binding kinetic fit; column head 'Kinetics affinity KD (nM)'
[7] = target: T1, Human nerve growth factor (NGF); assay: SPR (Biacore 8K), PetML119 captured on Protein A chip, human NGF as analyte, multi-cycle kinetics; column head 'Kinetics affinity KD (nM)'
[8] = target: T5, Canine FcRn-B2M recombinant protein (Immunitrack) (canine, UniProt A0A8I3PFR8 25-296; P19341 1-42); assay: SPR (Biacore 8K), canine FcRn-B2M amine-coupled on CM5, running buffer pH 6, fusion protein as analyte; steady state affinity
T5 chain 1: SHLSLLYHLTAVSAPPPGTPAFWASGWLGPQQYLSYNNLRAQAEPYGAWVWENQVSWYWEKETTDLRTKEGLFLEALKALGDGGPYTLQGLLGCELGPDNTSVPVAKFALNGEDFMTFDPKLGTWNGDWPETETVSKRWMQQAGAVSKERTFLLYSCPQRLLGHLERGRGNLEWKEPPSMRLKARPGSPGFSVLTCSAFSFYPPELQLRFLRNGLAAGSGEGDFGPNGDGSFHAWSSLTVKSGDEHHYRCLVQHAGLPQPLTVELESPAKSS
T5 chain 2: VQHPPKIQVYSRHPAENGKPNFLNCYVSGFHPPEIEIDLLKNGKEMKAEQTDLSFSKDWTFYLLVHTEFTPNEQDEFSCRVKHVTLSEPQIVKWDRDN

[9] = target: T3, Murine FcRn-B2M recombinant protein …; assay: SPR (Biacore 8K), murine FcRn-B2M amine-coupled on CM5, running buffer pH 6, fusion protein as analyte; steady state affinity; remark: listed apart in the source
[10] = target: T5, Canine FcRn-B2M recombinant protein …; assay: SPR (Biacore 8K), canine FcRn-B2M amine-coupled on CM5, running buffer pH 6, fusion protein as analyte; steady state affinity

B1: Bedinvetmab (antibody, V domains shown)
VH: EVQLVESGGDLVKPGGSLRLSCVASGFTFSSHGMHWVRQSPGKGLQWVAVINSGGSSTYYTDAVKGRFTISRDNAKNTVYLQMNSLRAEDTAMYYCAKESVGGWEQLVGPHFDYWGQGTLVIVSS
VL: QSVLTQPTSVSGSLGQRVTISCSGSTNNIGILGASWYQLFPGKAPKLLVYGNGNRPSGVPDRFSGADSGDSVTLTITGLQAEDEADYYCQSFDTTLGAHVFGGGTHLTVL
Kd [1]: 0.073 nM
IC50 (nM), inhibition of NGF-dependent TF-1 cell proliferation [2]: 1.65 nM

B2: PetML119 (canine p75NTR ECD-canine IgGB wt Fc protein fusion) (Fc fusion)
chain: KEACPTGLYTHSGECCKACNLGEGVAQPCGANQTVCEPCLDSVTFSDVVSATEPCKPCTECVGLQSMSAPCVEADDAVCRCAYGYYQDETTGRCEACRVCEAGSGLVFSCQDRQNTVCEECPDGTYSDEANHVDPCLPCTVCEDTERQLRECTRWADAECEEIPGGGGRENGRVPRPPDCPKCPAPEMLGGPSVFIFPPKPKDTLLIARTPEVTCVVVDLDPEDPEVQISWFVDGKQMQTAKTQPREEQFNGTYRVVSVLPIGHQDWLKGKQFTCKVNNKALPSPIERTISKARGQAHQPSVYVLPPSREELSKNTVSLTCLIKDFFPPDIDVEWQSNGQQEPESKYRTTPPQLDEDGSYFLYSKLSVDKSRWQRGDTFICAVMHEALHNHYTQKSLSHSPGK
notes: Glycosylated, made in CHO cells; also called Fc-Bwt; Sample 1
Kd [3]: 0.12 nM
Kd [4]: 2000 nM
Kd [5]: 1.3 nM
Kd [6]: 2.8 nM
Kd [7]: 0.12 nM
IC50 (nM), inhibition of NGF-dependent TF-1 cell proliferation [2]: 15.2 nM
Kd [8]: 6000 nM

B3: PetML122 (canine p75NTR ECD-canine Fc YTE protein fusion) (Fc fusion)
chain: B2 chain with L206Y, A208T, T210E
notes: also called Fc-B-YTE; Sample 2
Kd [9]: 90 nM
Kd [5]: 15 nM
Kd [10]: 400 nM
